Laboratory results: the supplement of paper PMC10065799, “High-throughput profiling of sequence recognition by tyrosine kinases and SH2 domains using bacterial peptide display” (eLife, 2023)

Target: SHP2-C SH2
Assay: SH2 binding enrichment of the phosphorylated peptide, bacterial display (enrichment ratio); higher = better substrate or ligand; peptides without Tyr show the background
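Note: peptide library displayed on the E. coli surface as eCPX fusions, selected cells deep-sequenced, score is each peptide's frequency after selection divided by its frequency in the input.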

| Sequence | SH2 binding enrichment |
| --- | --- |
| WPQKLYNNFVN [MYO5C_Y526_L522P] | 0.668 |
| TSSSSYFDEPV [ARFGAP3_Y356] | 0.827 |
| WEQELYSQLVF [WAS_Y102_YF] | 0.818 |
| GFEVVYMTEPI [HSP90AB1_Y512] | 0.694 |
| RTVPLYESPRK [DDB1_Y718] | 1.01 |
| SIKNKYVTALY [KCNH2_Y611_D609N] | 0.932 |
| RMDGKYACSYT [FLNB_Y704_T703K] | 0.863 |
| HYGNNYTDVLQ [MACC1_Y803_R804T] | 3.32 |
| NFDLDYDSVQP [MYC_Y16_YF] | 0.898 |
| VVQGLYKSMPK [KBTBD2_Y250] | 0.79 |
| PAIYTYDEYKK [COL8A2_Y648_T645I] | 0.513 |
| DTNIAYWLHPR [POMT1_Y581] | 1.08 |
| NACGLYHTMNG [GATA5_Y216_K218T] | 0.589 |
| HEGKIYEYNQV [ZNF665_Y162] | 0.672 |
| ENFDDYMKEVG [FABP4_Y20] | 0.791 |
| LVKDGYQMAQP [CSF1R_Y873] | 1.01 |
| KHMADYPDYKY [SOX11_Y113] | 0.847 |

Continued, values first:

| SH2 binding enrichment | Sequence |
| --- | --- |
| 12.4 | ISKKHYAGLLF [POLD1_Y809_R808H] |
| 0.734 | IVGRLYRLLTE [SETX_Y1978_L1976R] |
| 0.543 | FEKNVYVDKNL [PTCHD3_Y688] |
| 1.09 | SYVVRYNQPRV [GRIN2D_Y736_M733V] |
| 0.572 | VGTKQYMAPEV [ACVRL1_Y375_R374Q] |
| 0.882 | RFLERDIYNRE [HLA-DPB1_Y57_Y57D] |
| 1.24 | KGKLIYLLGDS [NXPE1_Y350] |
| 0.705 | KIEGVYARDET [RPL35A_Y34] |
| 0.558 | IDGLEYLHSPG [STK11_Y166_Q170P] |
| 0.611 | NNIDFYKNTTN [FGFR2_Y657_K659N_YF] |
| 0.631 | PEVSGYCHFAD [TG_Y234_C237Y_YF] |
| 1.59 | GEHSIYSTVNN [CD55_Y266_C267S] |
| 0.676 | KVGNEYVTKGQ [MYH7_Y410] |
| 0.684 | NQILPYIKELV [PPP2R1B_Y341] |
| 0.606 | PEADKYCLTFA [FGG_Y300_R301C_YF] |
| 0.795 | ICRWVYPLTPE [EIF2B5_Y319_R315C] |

Target: c-Src SH2
Assay: as above

| Sequence | SH2 binding enrichment |
| --- | --- |
| WPQKLYNNFVN [MYO5C_Y526_L522P] | 0.59 |
| TSSSSYFDEPV [ARFGAP3_Y356] | 0.569 |
| WEQELYSQLVF [WAS_Y102_YF] | 0.688 |
| GFEVVYMTEPI [HSP90AB1_Y512] | 0.605 |
| RTVPLYESPRK [DDB1_Y718] | 0.57 |
| SIKNKYVTALY [KCNH2_Y611_D609N] | 0.381 |
| RMDGKYACSYT [FLNB_Y704_T703K] | 0.878 |
| HYGNNYTDVLQ [MACC1_Y803_R804T] | 2.72 |
| NFDLDYDSVQP [MYC_Y16_YF] | 0.595 |
| VVQGLYKSMPK [KBTBD2_Y250] | 0.429 |
| PAIYTYDEYKK [COL8A2_Y648_T645I] | 2.29 |
| DTNIAYWLHPR [POMT1_Y581] | 0.561 |
| NACGLYHTMNG [GATA5_Y216_K218T] | 4.06 |
| HEGKIYEYNQV [ZNF665_Y162] | 2.25 |
| ENFDDYMKEVG [FABP4_Y20] | 0.802 |
| LVKDGYQMAQP [CSF1R_Y873] | 0.634 |
| KHMADYPDYKY [SOX11_Y113] | 0.519 |

The next lines start with the values.

| SH2 binding enrichment | Sequence |
| --- | --- |
| 2.04 | ISKKHYAGLLF [POLD1_Y809_R808H] |
| 0.738 | IVGRLYRLLTE [SETX_Y1978_L1976R] |
| 0.542 | FEKNVYVDKNL [PTCHD3_Y688] |
| 1.31 | SYVVRYNQPRV [GRIN2D_Y736_M733V] |
| 0.485 | VGTKQYMAPEV [ACVRL1_Y375_R374Q] |
| 0.877 | RFLERDIYNRE [HLA-DPB1_Y57_Y57D] |
| 1.17 | KGKLIYLLGDS [NXPE1_Y350] |
| 0.542 | KIEGVYARDET [RPL35A_Y34] |
| 0.491 | IDGLEYLHSPG [STK11_Y166_Q170P] |
| 0.434 | NNIDFYKNTTN [FGFR2_Y657_K659N_YF] |
| 1.32 | PEVSGYCHFAD [TG_Y234_C237Y_YF] |
| 0.718 | GEHSIYSTVNN [CD55_Y266_C267S] |
| 0.471 | KVGNEYVTKGQ [MYH7_Y410] |
| 0.55 | NQILPYIKELV [PPP2R1B_Y341] |
| 0.498 | PEADKYCLTFA [FGG_Y300_R301C_YF] |
| 0.538 | ICRWVYPLTPE [EIF2B5_Y319_R315C] |
